In the nanobody polyreactivity screen of Harvey et al. (2022):

Assay: yeast display, Sf9 membrane polyspecificity reagent, FACS + sequencing; frameworks hold sequencing errors
Summary of the method: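 Galactose-induced (36–48 hours) yeast carrying a synthetic nanobody display library were exposed to 10% biotinylated, detergent-solubilized Sf9 membrane reagent at 4 °C for 1 hour. FACS followed streptavidin microbead enrichment, using low and high (top ~1%) gates for expression (anti-HA) and reagent binding (streptavidin). Colony PCR, MiSeq 2 × 250 sequencing and CDR-length filtering followed. Labels for polyreactivity reflect the gate of origin.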

| Sequence | polyreactivity (PSR sort gate) |
| --- | --- |
| HVQLVESGGGLVQAGGSLRLSCAPSGRTFIGYAMGWYRQAPGKERELVAAITSRGRTNYADSVKGRFTISRDNAKNTVYLQMNSLNPEDTAVYYCAARTYGYWYYGFRGDYWGQGTQVTVSS | high polyreactivity |
| HVQLVESGGGLVQAGGSLRLSCGASGRIFRGNVMGWYRQAPGTERELVAAISWSGGSSYADAVKGRFSISRDNAKNTVYLQMNRLKPDDTAVYYWNADSLDGPKFDYWGQGTQVTVSS | low polyreactivity |
| HVQLVESGGGLVQAGGSLRLSFAASGFTFRSYAMGWYRKAPGQERELVAAINWRGDSTYYADSVKGRFTISRDNAKNTVYLQMNSLNPEDTAVYYCNAYSGYIRRTASDYWGQGTQVTVSS | high polyreactivity |
| HVQLVESGGGLVQAGRSLRFSCAASGSIFLYNAMGWYRQAPGKERELVAAISKSGGSTYYADSVKGRFTISRDNAKNTVYLQMNSLKPEDTAVYYCAAGYGRRIRYCSEYDYWGQGTQVTVSS | low polyreactivity |
| HVQLVESGGGLVQAGVSLRLSCAASGRIFVLYTRGWYRQAPGKDRELVAAISRRGGNTNYADSVKGRFTISRDNAMNTVYLQMNSLKPEDTAVYYCNARWTGARYYYYPMDYWGQGTQVTVSS | high polyreactivity |
| HVQQQESGGGLVQAGGSLRLSCAASGNISYSRNMGWYRQAPGKERELVAAIDRGAITYYADSVQGRFTISRDNAKNTVYLQIYSLKPEDTAVYYCAAEYHDRWDHRYWGQGTQVTVSS | high polyreactivity |
| HVQVVESGGGLVQAGGSLRLSCAASGRIFLLYTMGWYRQAPGKERELVAAISSDDSTNYADSVKGRFTISRDNAKNTVYIQMNSLKPEDTAVYYCAAGRKSYYRIYSEYVEFDYWGQGTQVTVSS | low polyreactivity |
| HVRLQESGGGLVQAGGSLRQSCAASGAISPYYDMGWYRLAPGKEREFVASIAHGGTTYYADSVKGRFTTSRDNAKNTVYLQMNSLKPEDTAVYYCAVAYDVWHSHIYRGQGTQVTVSS | high polyreactivity |
| HVRLQESGGGLVQAGGSLRQSCAASGAISPYYDMGWYRLAPGKEREFVASIAHGGTTYYADSVKGRFTTSRDNAKYNVYLRMNRLKPEDTAVYFCAAPKRYLGDYWGQGTQVTVSS | high polyreactivity |
| IIPAGGSLRLSCAASGATLIGYTMGWYRQAPGKERELVDAITWGAGSTNYADSVKGRFTISRDNAKNTVYLQMNSLKPEDTAVYDCNADSISDPRYLGEYDYWGQGTQVTVSS | low polyreactivity |
| IIQAGGSLRLSCAASGRTFSGYAMGWYRQAPGKERELIADITSGGSTYYADSVKGRFTISRDNAKNTVYLQMNSLKPEDTAVYYCAAERQIRSFWSSRTYEFGYWGQGTQVTVSS | low polyreactivity |
| IIQAGGSLRLSCAASGRTFSGYAMGWYRQAPGKERELIDDITSGGSTYYADSVKGRFTISRDNAKNTVYIQMNSLKPEDTAVYYCAAERHIRSFSSSRTYEFGYWGQGTQVTVSS | low polyreactivity |
| KGQLVESGGGLVQAGGSLRLTCAASGSNFRFYAMGWYRQAPGKERELVAAITYRSGITYADSVKGRFTISRDNAKNTVYVQMNSLKPEDTAVYYCAARARRYTDEYDYWGQGSQVTVSS | low polyreactivity |
| KGQLVESGGGLVQEGGSLRLSCAASGNTFVNNHMVWYRQAPGEERELVAAISRRAGSTYYADSVKGRFTISRENAKNTVYIQKNSLKPEENAVYYCAARGSRYYYVQGASKYDYWGQGTQVTVSS | high polyreactivity |
| KLQLVESGGGLVQAGGSLRLSCASSGSIFVWYAMGWYIQAPGKDRELVARITSGGRTNYADSVKGRFTISRDNAKNTVYLQMNSLKPEDTAVFYCAAGRVSWSPYYYWGQGTQVTVSS | high polyreactivity |
| KVHLVESGGGLVQAGGSLRLSSAAYGRTFYNNAMGWYIQAPGKERELVAAISGRGGSTYYADSLKGRFTISRDNAKNTVYVQMNILKPEDTAVYYCAATVKYSPIYDYWGQGTQVSVSS | high polyreactivity |
| KVQHVESGGGLVQAGGSLRLSCAASGLIFYRYAMGWYRQAPGKERELVAAISRSGSSTYYADSVKGRFTISRDNAKNTVYLQMNSLKPEDTAVYYCNAGYGWIWDDRGYWGQGSQVTVSS | high polyreactivity |
